# Target: PTP-CIF3 (Trypanosoma brucei)
# Assay: co-IP; PTP-tagged protein precipitated from T. brucei lysate with IgG-Sepharose beads, 30 min at 4°C, IP buffer, five washes; 3HA-tagged partner detected by anti-HA immunoblot; complementation lines induced with tetracycline
row,Substance,percent of the input protein immunoprecipitated
1,CIF1-ΔIDR2-3HA (natural protein),72%
2,"CIF1-3HA (ectopic, full-length CIF1) (natural protein)",50%
3,CIF1-ΔIDR1-3HA (domain or fragment),24%

# Target: CIF1 (endogenous) (Trypanosoma brucei (endogenous in T. brucei cells))
# Assay: co-IP; endogenous CIF1 or TbPLK precipitated from T. brucei lysate with anti-CIF1 or anti-TbPLK antibody and protein A-Sepharose beads, 30 min at 4°C, IP buffer; 3HA-tagged CIF3* and mutants detected by anti-HA immunoblot; band intensity by ImageJ, normalised to CIF1 and compared with the input
row,Substance,percent of the input protein immunoprecipitated
1,CIF3*-ΔCC1-3HA (domain or fragment),16%
2,"CIF3*-3HA (full-length recoded, RNAi-resistant CIF3) (natural protein)",21%
3,CIF3*-ΔCC3-3HA (natural protein),3%
4,CIF3*-ΔCC2-3HA (natural protein),31%
